The subject of data set [1] is HeLa Kyoto. As to the kind of experiment: solubility in G1/S (NP-40 vs SDS abundance) (log2 ratio); higher = more soluble. To be noted: cell cycle stage: G1/S.
In data set [2] the test system is HeLa Kyoto. The experiment in a line: melting temperature (median over replicates), in situ; higher = more thermally stable.
For data set [3], the system named is HeLa Kyoto. As to the kind of experiment: solubility change mitosis vs G1/S (difference of NP-40 vs SDS log2 ratios) (log2 ratio difference); higher = more soluble in mitosis.
The test system of data set [4] is HeLa Kyoto. As to the kind of experiment: thermal stability score vs G1/S (z-score of summed log2 fold changes over temperatures); higher = more thermally stable than in G1/S.
Where [5] appears, read: cell cycle stage: early G1 (4.5 h after nocodazole release).
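For melting temperature (median over replicates), in situ in this document: HeLa Kyoto cells synchronized by double thymidine or nocodazole block, proteins quantified by TMT10plex mass spectrometry, three independent biological replicates.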
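For solubility change mitosis vs G1/S (difference of NP-40 vs SDS log2 ratios) in this document: synchronized HeLa Kyoto cells (double thymidine block for G1/S, nocodazole release for mitosis), protein amounts in NP-40 versus SDS lysates quantified by mass spectrometry, three biological replicates.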
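For solubility in G1/S (NP-40 vs SDS abundance) in this document: HeLa Kyoto cells arrested at G1/S by double thymidine block, proteins quantified by TMT10plex mass spectrometry in mild NP-40 versus SDS extracts, three biological replicates.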
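For thermal stability score vs G1/S (z-score of summed log2 fold changes over temperatures) in this document: synchronized HeLa Kyoto cells, proteins quantified by TMT10plex mass spectrometry, three biological replicates, mitosis taken 0.5 h after nocodazole release, G1/S directly after double thymidine block.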

With “MSRKGPRAEVCADCSAPDPGWASISRGVLVCDECCSVHRSLGRHISIVKHLRHSAWPPTLLQMVHTLASNGANSIWEHSLLDPAQVQSGRRKANPQDKVHPIKSEFIRAKYQMLAFVHKLPCRDDDGVTAKDLSKQLHSSVRTGNLETCLRLLSLGAQANFFHPEKGTTPLHVAAKAGQTLQAELLVVYGADPGSPDVNGRTPIDYARQAGHHELAERLVECQYELTDRLAFYLCGRKPDHKNGHYIIPQMADSLDLSELAKAAKKKLQALSNRLFEELAMDVYDEVDRRENDAVWLATQNHSTLVTERSAVPFLPVNPEYSATRNQGRQKLARFNAREFATLIIDILSEAKRRQQGKSLSSPTDNLELSLRSQSDLDDQHDYDSVASDEDTDQEPLRSTGATRSNRARSMDSSDLSDGAVTLQEYLELKKALATSEAKVQQLMKVNSSLSDELRRLQREIHKLQAENLQLRQPPGPVPTPPLPSERAEHTPMAPGGSTHRRDRQAFSMYEPGSALKPFGGPPGDELTTRLQPFHSTELEDDAIYSVHVPAGLYRIRKGVSASAVPFTPSSPLLSCSQEGSRHTSKLSRHGSGADSDYENTQSGDPLLGLEGKRFLELGKEEDFHPELESLDGDLDPGLPSTEDVILKTEQVTKNIQELLRAAQEFKHDSFVPCSEKIHLAVTEMASLFPKRPALEPVRSSLRLLNASAYRLQSECRKTVPPEPGAPVDFQLLTQQVIQCAYDIAKAAKQLVTITTREKKQ [GIT1]”, in the data set on HeLa Kyoto [1], the “solubility in G1/S (log2)” value was determined as 0.235. Moreover, the melting temperature came out at 48.4 °C in the data set on HeLa Kyoto [2] (cell cycle stage: G1/S) and 50 °C with HeLa Kyoto [2] (cell cycle stage: mitosis). Further, the “solubility change mitosis (log2)” value in the data set with HeLa Kyoto [3] is -0.123. In addition, the results for the thermal stability score in the data set with HeLa Kyoto [4] (setting [5]) and in the data set on HeLa Kyoto [4] (cell cycle stage: mitosis) were 0.709 and 0.998, respectively.
With “MSESFDCAKCNESLYGRKYIQTDSGPYCVPCYDNTFANTCAECQQLIGHDSRELFYEDRHFHEGCFRCCRCQRSLADEPFTCQDSELLCNDCYCSAFSSQCSACGETVMPGSRKLEYGGQTWHEHCFLCSGCEQPLGSRSFVPDKGAHYCVPCYENKFAPRCARCSKTLTQGGVTYRDQPWHRECLVCTGCQTPLAGQQFTSRDEDPYCVACFGELFAPKCSSCKRPIVGLGGGKYVSFEDRHWHHNCFSCARCSTSLVGQGFVPDGDQVLCQGCSQAGP [FHL3]”, the “solubility in G1/S (log2)” value in the data set on HeLa Kyoto [1] is -0.281. Besides, the values for the melting temperature with HeLa Kyoto [2] (cell cycle stage: G1/S) and in the data set on HeLa Kyoto [2] (cell cycle stage: mitosis) were 57.7 °C and 56.8 °C, respectively. For the same sequence, in the data set on HeLa Kyoto [3], the “solubility change mitosis (log2)” value was -0.184. Besides, the results for the thermal stability score in the data set on HeLa Kyoto [4] (setting [5]) and with HeLa Kyoto [4] (cell cycle stage: mitosis) were 0.504 and -1.78, respectively.
In the case of “MDISTRSKDPGSAERTAQKRKFPSPPHSSNGHSPQDTSTSPIKKKKKPGLLNSNNKEQSELRHGPFYYMKQPLTTDPVDVVPQDGRNDFYCWVCHREGQVLCCELCPRVYHAKCLRLTSEPEGDWFCPECEKITVAECIETQSKAMTMLTIEQLSYLLKFAIQKMKQPGTDAFQKPVPLEQHPDYAEYIFHPMDLCTLEKNAKKKMYGCTEAFLADAKWILHNCIIYNGGNHKLTQIAKVVIKICEHEMNEIEVCPECYLAACQKRDNWFCEPCSNPHPLVWAKLKGFPFWPAKALRDKDGQVDARFFGQHDRAWVPINNCYLMSKEIPFSVKKTKSIFNSAMQEMEVYVENIRRKFGVFNYSPFRTPYTPNSQYQMLLDPTNPSAGTAKIDKQEKVKLNFDMTASPKILMSKPVLSGGTGRRISLSDMPRSPMSTNSSVHTGSDVEQDAEKKATSSHFSASEESMDFLDKSTASPASTKTGQAGSLSGSPKPFSPQLSAPITTKTDKTSTTGSILNLNLDRSKAEMDLKELSESVQQQSTPVPLISPKRQIRSRFQLNLDKTIESCKAQLGINEISEDVYTAVEHSDSEDSEKSDSSDSEYISDDEQKSKNEPEDTEDKEGCQMDKEPSAVKKKPKPTNPVEIKEELKSTSPASEKADPGAVKDKASPEPEKDFSEKAKPSPHPIKDKLKGKDETDSPTVHLGLDSDSESELVIDLGEDHSGREGRKNKKEPKEPSPKQDVVGKTPPSTTVGSHSPPETPVLTRSSAQTSAAGATATTSTSSTVTVTAPAPAATGSPVKKQRPLLPKETAPAVQRVVWNSSSKFQTSSQKWHMQKMQRQQQQQQQQNQQQQPQSSQGTRYQTRQAVKAVQQKEITQSPSTSTITLVTSTQSSPLVTSSGSMSTLVSSVNADLPIATASADVAADIAKYTSKMMDAIKGTMTEIYNDLSKNTTGSTIAEIRRLRIEIEKLQWLHQQELSEMKHNLELTMAEMRQSLEQERDRLIAEVKKQLELEKQQAVDETKKKQWCANCKKEAIFYCCWNTSYCDYPCQQAHWPEHMKSCTQSATAPQQEADAEVNTETLNKSSQGSSSSTQSAPSETASASKEKETSAEKSKESGSTLDLSGSRETPSSILLGSNQGSDHSRSNKSSWSSSDEKRGSTRSDHNTSTSTKSLLPKESRLDTFWD [ZMYND8]”, the “solubility in G1/S (log2)” value in the data set on HeLa Kyoto [1] is -0.387. The figures for the melting temperature with HeLa Kyoto [2] (cell cycle stage: G1/S) and with HeLa Kyoto [2] (cell cycle stage: mitosis) were 48.5 °C and 50.2 °C, respectively. The “solubility change mitosis (log2)” value in the data set with HeLa Kyoto [3] is 0.163. In addition, the thermal stability score in the data set on HeLa Kyoto [4] (setting [5]) turned out to be 1.53; with HeLa Kyoto [4] (cell cycle stage: mitosis) it was 3.16.
“MQAARMAASLGRQLLRLGGGSSRLTALLGQPRPGPARRPYAGGAAQLALDKSDSHPSDALTRKKPAKAESKSFAVGMFKGQLTTDQVFPYPSVLNEEQTQFLKELVEPVSRFFEEVNDPAKNDALEMVEETTWQGLKELGAFGLQVPSELGGVGLCNTQYARLVEIVGMHDLGVGITLGAHQSIGFKGILLFGTKAQKEKYLPKLASGETVAAFCLTEPSSGSDAASIRTSAVPSPCGKYYTLNGSKLWISNGGLADIFTVFAKTPVTDPATGAVKEKITAFVVERGFGGITHGPPEKKMGIKASNTAEVFFDGVRVPSENVLGEVGSGFKVAMHILNNGRFGMAAALAGTMRGIIAKAVDHATNRTQFGEKIHNFGLIQEKLARMVMLQYVTESMAYMVSANMDQGATDFQIEAAISKIFGSEAAWKVTDECIQIMGGMGFMKEPGVERVLRDLRIFRIFEGTNDILRLFVALQGCMDKGKELSGLGSALKNPFGNAGLLLGEAGKQLRRRAGLGSGLSLSGLVHPELSRSGELAVRALEQFATVVEAKLIKHKKGIVNEQFLLQRLADGAIDLYAMVVVLSRASRSLSEGHPTAQHEKMLCDTWCIEAAARIREGMAALQSDPWQQELYRNFKSISKALVERGGVVTSNPLGF [ACADVL]”: in the data set on HeLa Kyoto [1], the “solubility in G1/S (log2)” value is 0.117. Further, the melting temperature in the data set on HeLa Kyoto [2] (cell cycle stage: G1/S) was found to be 54.9 °C; with HeLa Kyoto [2] (cell cycle stage: mitosis) it was 55 °C. Besides, the “solubility change mitosis (log2)” value with HeLa Kyoto [3] was -0.118. Besides, the thermal stability score is 0.172 in the data set with HeLa Kyoto [4] (setting [5]) and -2.03 in the data set on HeLa Kyoto [4] (cell cycle stage: mitosis).
As to “MVLLAAAVCTKAGKAIVSRQFVEMTRTRIEGLLAAFPKLMNTGKQHTFVETESVRYVYQPMEKLYMVLITTKNSNILEDLETLRLFSRVIPEYCRALEENEISEHCFDLIFAFDEIVALGYRENVNLAQIRTFTEMDSHEEKVFRAVRETQEREAKAEMRRKAKELQQARRDAERQGKKAPGFGGFGSSAVSGGSTAAMITETIIETDKPKVAPAPARPSGPSKALKLGAKGKEVDNFVDKLKSEGETIMSSSMGKRTSEATKMHAPPINMESVHMKIEEKITLTCGRDGGLQNMELHGMIMLRISDDKYGRIRLHVENEDKKGVQLQTHPNVDKKLFTAESLIGLKNPEKSFPVNSDVGVLKWRLQTTEESFIPLTINCWPSESGNGCDVNIEYELQEDNLELNDVVITIPLPSGVGAPVIGEIDGEYRHDSRRNTLEWCLPVIDAKNKSGSLEFSIAGQPNDFFPVQVSFVSKKNYCNIQVTKVTQVDGNSPVRFSTETTFLVDKYEIL [ARCN1]”, the “solubility in G1/S (log2)” value in the data set on HeLa Kyoto [1] is -0.104. The figures for the melting temperature in the data set with HeLa Kyoto [2] (cell cycle stage: G1/S) and in the data set with HeLa Kyoto [2] (cell cycle stage: mitosis) were 51.7 °C and 51.8 °C, respectively. Further, the “solubility change mitosis (log2)” value with HeLa Kyoto [3] was -0.0987. The values for the thermal stability score in the data set with HeLa Kyoto [4] (setting [5]) and in the data set on HeLa Kyoto [4] (cell cycle stage: mitosis) were 1.07 and 0.0434, respectively.
As for “MGKSDFLTPKAIANRIKSKGLQKLRWYCQMCQKQCRDENGFKCHCMSESHQRQLLLASENPQQFMDYFSEEFRNDFLELLRRRFGTKRVHNNIVYNEYISHREHIHMNATQWETLTDFTKWLGREGLCKVDETPKGWYIQYIDRDPETIRRQLELEKKKKQDLDDEEKTAKFIEEQVRRGLEGKEQEVPTFTELSRENDEEKVTFNLSKGACSSSGATSSKSSTLGPSALKTIGSSASVKRKESSQSSTQSKEKKKKKSALDEIMEIEEEKKRTARTDYWLQPEIIVKIITKKLGEKYHKKKAIVKEVIDKYTAVVKMIDSGDKLKLDQTHLETVIPAPGKRILVLNGGYRGNEGTLESINEKTFSATIVIETGPLKGRRVEGIQYEDISKLA [KIN]”, the “solubility in G1/S (log2)” value with HeLa Kyoto [1] was -0.339. The melting temperature is 51.1 °C in the data set on HeLa Kyoto [2] (cell cycle stage: G1/S) and 49.3 °C in the data set with HeLa Kyoto [2] (cell cycle stage: mitosis). Moreover, the “solubility change mitosis (log2)” value with HeLa Kyoto [3] stood at 0.174. Also, the thermal stability score with HeLa Kyoto [4] (setting [5]) stood at 0.727; in the data set on HeLa Kyoto [4] (cell cycle stage: mitosis), 1.45.

These data come from the supplement of paper PMC5998384.
